Data taken from the supplement of paper PMC9876800.

Tested on: peptide library, one residue held at a place counted from the S/T acceptor
Test: relative phosphorylation of the sub-library (ratio to the mean residue at this position); higher = residue favoured
Conditions: human
In short: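 Each biotinylated degenerate peptide sub-library fixed one residue at one position around a central Ser/Thr and was incubated with a purified recombinant kinase, a human or orthologue construct, in 384-well plates. The 90 min reactions, under kinase-specific conditions, contained 50 μM peptide and 50 μM ATP spiked with γ-32P-ATP. Phosphorylation was read by phosphorimaging spots on streptavidin membranes and quantifying them by densitometry. Relative sub-library phosphorylation expresses each value as a ratio to the mean residue at that position.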

Chain of CHEK1, construct: Full length (O14757 whole entry, looked up): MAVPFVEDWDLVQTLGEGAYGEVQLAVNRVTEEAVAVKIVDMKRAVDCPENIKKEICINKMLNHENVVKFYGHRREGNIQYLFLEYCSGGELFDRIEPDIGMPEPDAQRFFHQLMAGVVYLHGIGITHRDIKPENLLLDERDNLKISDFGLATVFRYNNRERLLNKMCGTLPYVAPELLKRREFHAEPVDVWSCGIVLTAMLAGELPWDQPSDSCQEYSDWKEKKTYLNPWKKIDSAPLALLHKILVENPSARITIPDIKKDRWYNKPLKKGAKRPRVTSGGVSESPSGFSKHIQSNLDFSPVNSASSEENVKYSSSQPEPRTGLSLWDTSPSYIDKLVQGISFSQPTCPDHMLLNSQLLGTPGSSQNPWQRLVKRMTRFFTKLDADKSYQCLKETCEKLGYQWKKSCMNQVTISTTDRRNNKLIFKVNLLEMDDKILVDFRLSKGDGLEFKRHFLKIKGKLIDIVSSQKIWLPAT
Chain of MAPK10, construct: aa1-426 (P53779 1-426, looked up): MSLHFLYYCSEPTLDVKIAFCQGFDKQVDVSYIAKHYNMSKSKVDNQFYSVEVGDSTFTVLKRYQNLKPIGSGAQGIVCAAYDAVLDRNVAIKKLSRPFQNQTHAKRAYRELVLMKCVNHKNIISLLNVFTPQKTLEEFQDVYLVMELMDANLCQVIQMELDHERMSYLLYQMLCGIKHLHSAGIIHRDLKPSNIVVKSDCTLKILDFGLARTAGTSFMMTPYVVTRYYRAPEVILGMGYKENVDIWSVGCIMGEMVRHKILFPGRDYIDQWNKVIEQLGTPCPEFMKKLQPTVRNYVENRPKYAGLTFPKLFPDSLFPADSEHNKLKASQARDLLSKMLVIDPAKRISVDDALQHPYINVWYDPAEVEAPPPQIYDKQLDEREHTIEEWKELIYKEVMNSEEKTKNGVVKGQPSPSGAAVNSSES
Chain of BUB1, construct: Full length (O43683 whole entry, looked up): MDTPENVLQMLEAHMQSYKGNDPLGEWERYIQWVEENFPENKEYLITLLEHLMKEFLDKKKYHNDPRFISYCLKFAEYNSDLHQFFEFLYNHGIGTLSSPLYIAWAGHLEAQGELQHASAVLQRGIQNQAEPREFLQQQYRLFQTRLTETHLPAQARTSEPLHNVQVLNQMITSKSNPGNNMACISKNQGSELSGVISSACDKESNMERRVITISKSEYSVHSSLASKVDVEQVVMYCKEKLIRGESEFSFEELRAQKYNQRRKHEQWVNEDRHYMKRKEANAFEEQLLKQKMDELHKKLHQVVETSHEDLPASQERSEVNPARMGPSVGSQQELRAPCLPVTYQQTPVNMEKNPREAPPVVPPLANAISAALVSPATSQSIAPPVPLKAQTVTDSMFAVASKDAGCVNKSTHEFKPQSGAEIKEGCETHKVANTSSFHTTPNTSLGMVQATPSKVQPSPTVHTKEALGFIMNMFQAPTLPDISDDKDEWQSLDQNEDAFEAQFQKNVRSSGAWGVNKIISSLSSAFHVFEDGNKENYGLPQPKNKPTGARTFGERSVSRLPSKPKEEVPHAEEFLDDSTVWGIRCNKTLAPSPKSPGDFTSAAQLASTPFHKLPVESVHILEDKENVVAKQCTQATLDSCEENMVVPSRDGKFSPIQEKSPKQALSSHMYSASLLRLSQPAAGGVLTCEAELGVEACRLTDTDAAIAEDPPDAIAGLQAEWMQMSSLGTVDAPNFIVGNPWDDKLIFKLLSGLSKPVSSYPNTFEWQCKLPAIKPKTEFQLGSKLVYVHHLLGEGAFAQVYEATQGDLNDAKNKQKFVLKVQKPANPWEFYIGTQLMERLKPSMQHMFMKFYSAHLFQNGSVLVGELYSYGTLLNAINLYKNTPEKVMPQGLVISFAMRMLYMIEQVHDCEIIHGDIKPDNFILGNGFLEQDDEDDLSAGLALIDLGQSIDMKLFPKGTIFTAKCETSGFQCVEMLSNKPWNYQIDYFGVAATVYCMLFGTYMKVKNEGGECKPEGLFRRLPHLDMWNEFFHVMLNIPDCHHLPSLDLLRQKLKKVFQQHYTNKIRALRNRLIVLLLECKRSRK
Chain of CAMK2G, construct: aa24-334 (Q13555 24-334, looked up): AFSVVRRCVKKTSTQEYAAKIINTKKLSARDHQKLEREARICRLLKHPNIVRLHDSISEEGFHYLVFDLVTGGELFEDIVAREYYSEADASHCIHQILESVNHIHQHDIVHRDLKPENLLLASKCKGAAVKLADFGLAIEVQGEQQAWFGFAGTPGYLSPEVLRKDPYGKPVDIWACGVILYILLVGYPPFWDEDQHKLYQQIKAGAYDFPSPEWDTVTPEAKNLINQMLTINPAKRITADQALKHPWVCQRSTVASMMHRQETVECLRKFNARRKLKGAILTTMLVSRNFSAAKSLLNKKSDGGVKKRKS

BUB1, construct: Full length (from UniProt O43683)
relative phosphorylation
Conditions	at +1	at +2	at +3	at +4	at -1	at -2	at -3	at -4	at -5
A fixed	0.963	0.738	0.95	0.855	0.796	0.718	1.66	1.24	0.423
D fixed	0.375	0.267	0.416	0.455	0.321	0.411	0.232	0.61	0.245
E fixed	0.325	0.331	0.379	0.424	0.289	0.284	0.347	0.865	0.246
F fixed	0.541	1.13	0.784	0.78	0.855	0.411	0.389	0.739	0.486
G fixed	1.34	1.09	1.09	1.31	0.502	0.418	0.918	1.06	0.377
H fixed	0.807	1.22	0.969	1.04	0.902	0.597	0.591	0.882	0.393
I fixed	0.594	0.761	0.565	1	0.551	1.8	0.839	0.556	1.12
K fixed	3.21	2.02	1.22	1.93	2.21	3.31	1.2	1.66	0.472
L fixed	0.552	0.851	0.543	0.849	1.43	1.13	0.526	1.16	4.97
M fixed	0.759	0.986	0.777	0.96	1.32	0.851	0.656	1.13	1.3
N fixed	0.662	0.583	0.711	1.07	0.566	0.584	0.616	0.558	0.388
P fixed	0.367	2.16	4.04	0.962	1.33	0.721	3.77	1.5	1.53
Q fixed	0.972	0.747	0.767	1.01	0.77	0.868	1.24	1.07	0.905
R fixed	3.99	2.14	1.41	1.8	2.76	2.32	2.38	1.64	1.31
V fixed	0.611	0.777	0.631	0.78	0.435	1.65	0.791	0.676	0.543
W fixed	0.497	0.491	0.936	0.949	0.705	0.485	0.442	0.829	0.412
Y fixed	0.442	0.713	0.813	0.824	1.26	0.452	0.405	0.827	1.87
pThr fixed	0.373	0.328	0.586	0.443	0.199	0.249	0.375	0.475	0.408
pTyr fixed	0.252	0.29	0.697	0.463	0.315	0.281	0.256	0.414	0.993

CAMK2G, construct: aa24-334 (from UniProt Q13555)
relative phosphorylation
Conditions	at +1	at +2	at +3	at +4	at -1	at -2	at -3	at -4	at -5
A fixed	0.737	0.749	0.902	0.943	0.933	0.991	0.897	0.98	1
D fixed	0.862	3.95	1.64	1.87	1.41	1.02	0.898	1.07	1.13
E fixed	0.878	2.06	2.04	1.99	1.26	0.887	0.9	1.04	1.12
F fixed	2.53	0.723	0.818	0.816	0.913	1.25	1.27	0.987	0.991
G fixed	0.709	0.692	0.983	1.02	0.953	1.07	0.829	0.974	0.971
H fixed	0.814	0.784	0.979	0.903	0.897	1.25	1.06	1.14	1.19
I fixed	1.14	0.712	0.879	0.814	0.855	0.775	0.918	0.924	0.855
K fixed	0.824	0.705	0.863	0.785	1.1	0.889	0.945	0.946	1.09
L fixed	1.01	0.675	0.907	0.812	0.965	0.795	0.916	0.894	0.953
M fixed	1.43	0.696	0.855	0.785	0.944	0.841	1.04	0.903	0.871
N fixed	0.813	0.92	0.943	0.91	1.05	1.17	1.04	1.07	1.02
P fixed	0.675	0.64	0.708	0.948	0.78	0.705	0.871	0.896	0.864
Q fixed	0.959	0.773	0.98	0.911	1.07	1	0.982	0.96	0.916
R fixed	0.841	0.72	0.833	0.764	1.11	0.963	1.14	0.906	1
V fixed	1.02	0.729	0.888	0.85	0.912	0.805	0.829	0.883	0.963
W fixed	0.776	0.74	0.877	1.01	0.919	1.41	1.33	1.37	1.13
Y fixed	0.984	0.728	0.907	0.881	0.933	1.18	1.14	1.05	0.938
pThr fixed	1.09	1.16	1.78	2.53	1.25	1	0.985	1.11	1
pTyr fixed	1.23	4.79	1.69	2.15	1.63	1.11	1.11	1.1	1.02

CHEK1, construct: Full length (from UniProt O14757)
relative phosphorylation
Conditions	at +1	at +2	at +3	at +4	at -1	at -2	at -3	at -4	at -5
A fixed	0.806	1.04	0.824	0.997	0.779	1.18	0.579	1.17	0.706
D fixed	1.03	1.19	1.4	1.19	1.06	0.387	0.353	0.714	0.379
E fixed	0.981	0.932	1.01	0.882	0.709	0.977	0.853	1.15	0.261
F fixed	1.43	0.719	0.731	0.754	0.637	1.16	0.39	0.817	2.06
G fixed	1.21	0.978	1.16	1.18	0.915	0.619	0.685	0.811	0.331
H fixed	1.21	1.38	1.2	1.17	1.27	2.01	2.02	1.14	0.51
I fixed	0.801	0.808	0.832	0.968	0.396	0.56	0.253	0.952	2.21
K fixed	0.614	0.531	0.588	0.687	1.54	0.887	2.36	1.45	0.405
L fixed	0.98	0.756	0.908	1.18	0.805	0.738	0.281	0.919	2.9
M fixed	1.57	0.935	0.985	1.06	0.901	1.14	0.625	1.26	1.98
N fixed	1.65	1.82	1.47	1.23	1.68	1.42	0.992	0.9	0.361
P fixed	0.429	0.973	1.2	1.57	1.84	0.547	1.37	0.458	0.49
Q fixed	1.19	1.36	1.15	1.12	1.36	1.17	0.995	1.07	0.422
R fixed	0.599	0.692	0.57	0.547	0.98	0.895	3.45	1.41	0.759
V fixed	0.686	0.96	0.802	0.713	0.48	0.701	0.323	1.05	1.25
W fixed	0.94	1.01	1.18	0.874	0.682	1.2	0.857	0.829	1.32
Y fixed	0.869	0.921	0.995	0.886	0.963	1.39	0.617	0.902	0.661
pThr fixed	0.831	0.822	0.733	0.892	0.188	0.139	0.198	0.311	0.164
pTyr fixed	0.821	1.17	0.94	0.812	0.495	0.382	0.193	0.343	0.443

MAPK10, construct: aa1-426 (from UniProt P53779)
relative phosphorylation
Conditions	at +1	at +2	at +3	at +4	at -1	at -2	at -3	at -4	at -5
A fixed	0.471	0.918	1.3	1.17	1.08	2.16	1.22	1.22	1.17
D fixed	0.256	1	1.44	1.34	0.89	0.958	1.36	1.39	1.42
E fixed	0.234	0.725	1.52	1.25	0.855	0.548	1.15	1.28	1.18
F fixed	0.456	0.765	0.929	0.851	0.752	0.582	1	0.854	0.875
G fixed	0.671	1.12	1.38	1.1	1.16	0.785	1.13	1.06	1.15
H fixed	0.281	1.05	1.19	1.12	1.13	0.552	1.08	1.03	0.964
I fixed	0.351	1.26	0.596	0.783	0.662	1.25	0.735	0.705	0.738
K fixed	0.268	0.779	0.611	0.82	0.982	0.548	0.653	0.783	0.754
L fixed	0.366	1.27	0.77	0.913	1.2	1.96	0.853	0.753	0.644
M fixed	0.369	1.76	0.922	0.888	1.27	1.07	1.06	1.01	0.722
N fixed	0.269	1.03	1.07	1.07	0.849	0.554	1.03	0.84	0.928
P fixed	11.5	0.517	0.564	1.5	1.47	2.13	1.2	1.23	1.33
Q fixed	0.259	1.03	1	1.05	1.37	0.747	0.964	1.01	1.07
R fixed	0.269	0.848	0.945	0.893	1.01	0.612	0.883	0.923	1.07
V fixed	0.367	1.48	0.723	0.82	0.781	1.43	0.717	0.843	0.913
W fixed	0.29	0.723	1.03	0.701	0.722	0.587	1.03	1.1	0.967
Y fixed	0.292	0.734	0.999	0.732	0.815	0.518	0.929	0.962	1.1
pThr fixed	0.434	1.94	1.02	1.4	0.52	1.08	1.06	1.17	1.29
pTyr fixed	0.569	1.23	1.59	1.02	0.893	0.598	1.03	1.64	1.41
